# T1: Substrate No. 19
# T1 chain: DEVD
# B1: caspase-3 enzyme (Biovision Inc., Mountain View, Calif.) (protein)
# chain: SGISLDNSYKMDYPEMGLCIIINNKNFHKSTGMTSRSGTDVDAANLRETFRNLKYEVRNKNDLTREEIVELMRDVSKEDHSKRSSFVCVLLSHGEEGIIFGTNGPVDLKKITNFFRGDRCRSLTGKPKLFIIQACRGTELDCGIETDSGVDDDMACHKIPVEADFLYAYSTAPGYYSWRNSKDGSWFIQSLCAMLKQYADKLEFMHILTRVNRKVATEFESFSFDATFHAKKQIPCIVSMLTKELYFYH
# Target: T1, Substrate No. 19
protein,measurement,value
B1,"fluorescence signal over time (excitation 485 nm, emission 530 nm) in the presence of dsDNA; enzymatic cleavage assay",The data demonstrates that Substrate No. 19 is a substrate for caspase-3 enzyme.

# — US20140273151
